Target: rhodamine-labeled cyclic β-hairpin peptide (human)
Test: fluorescence polarisation

For “recombinant Ssa1 (from UniProt P10591 1-642) (natural protein)”, the Kd was 3.5 µM.

For “recombinant Ydj1 (from UniProt P25491 1-409) (natural protein)”, the Kd was 46.8 µM.

— publication PMC6122992
